± gives the standard deviation of the averaged measurements.
Assay: total protein half-life in vivo (active degradation + dilution); higher = more stable protein
[1] = E. coli NCM3722 delta-clpP delta-lon delta-hslV, growth: N-lim chemostat, doubling time 6 h
[2] = E. coli NCM3722 delta-clpP, growth: N-lim chemostat, doubling time 6 h
[3] = E. coli NCM3722 delta-hslV, growth: N-lim chemostat, doubling time 6 h
[4] = E. coli NCM3722 delta-lon, growth: N-lim chemostat, doubling time 6 h
[5] = E. coli NCM3722 delta-smpB, growth: N-lim chemostat, doubling time 6 h
[6] = wild type E. coli NCM3722, growth: C-lim chemostat, doubling time 3 h
[7] = wild type E. coli NCM3722, growth: C-lim chemostat, doubling time 6 h
[8] = wild type E. coli NCM3722, growth: C-lim chemostat, doubling time 12 h
[9] = wild type E. coli NCM3722, growth: N-lim chemostat, doubling time 6 h
[10] = wild type E. coli NCM3722, growth: N-lim chemostat, doubling time 12 h
[11] = wild type E. coli NCM3722, growth: P-lim chemostat, doubling time 6 h
[12] = wild type E. coli NCM3722, growth: P-lim chemostat, doubling time 12 h

Row | Sequence | total protein half-life in vivo [1] [h] | total protein half-life in vivo [2] [h] | total protein half-life in vivo [3] [h] | total protein half-life in vivo [4] [h] | total protein half-life in vivo [5] [h] | total protein half-life in vivo [6] [h] | total protein half-life in vivo [7] [h] | total protein half-life in vivo [8] [h] | total protein half-life in vivo [9] [h] | total protein half-life in vivo [10] [h] | total protein half-life in vivo [11] [h] | total protein half-life in vivo [12] [h]
1 | MRILVLGVGNILLTDEAIGVRIVEALEQRYILPDYVEILDGGTAGMELLGDMANRDHLIIADAIVSKKNAPGTMMILRDEEVPALFTNKISPHQLGLADVLSALRFTGEFPKKLTLVGVIPESLEPHIGLTPTVEAMIEPALEQVLAALRESGVEAIPREAIHD | 5.25 ± 0.57 | 4.51 ± 0.38 | 4.14 ± 0.58 | 5.3 ± 0.96 | 3.53 ± 0.16 | 3.09 ± 0.27 | 5.7 ± 1.1 | 11.5 ± 0.37 | 4.28 ± 0.7 | 6.81 ± 0.15 | 6.77 ± 0.8 | 11 ± 0.18
2 | MRKIVAMAVICLTAASGLTSAYAAQLADDEAGLRIRLKNELRRADKPSAGAGRDIYAWVQGGLLDFNSGYYSNIIGVEGGAYYVYKLGARADMSTRWYLDGDKSFGFALGAVKIKPSENSLLKLGRFGTDYSYGSLPYRIPLMAGSSQRTLPTVSEGALGYWALTPNIDLWGMWRSRVFLWTDSTTGIRDEGVYNSQTGKYDKHRARSFLAASWHDDTSRYSLGASVQKDVSNQIQSILEKSIPLDPNYTLKGELLGFYAQLEGLSRNTSQPNETALVSGQLTWNAPWGSVFGSGGYLRHAMNGAVVDTDIGYPFSLSLDRNREGMQSWQLGVNYRLTPQFTLTFAPIVTRGYESSKRDVRIEGTGILGGMNYRVSEGPLQGMNFFLAADKGREKRDGSTLGDRLNYWDVKMSIQYDFMLK | – | – | – | – | – | 3.55 ± 0.51 | 7.84 | 11.5 ± 2 | – | – | – | –
3 | MRKSVIAIIIIVLVVLYMSVFVVKEGERGITLRFGKVLRDDDNKPLVYEPGLHFKIPFIETVKMLDARIQTMDNQADRFVTKEKKDLIVDSYIKWRISDFSRYYLATGGGDISQAEVLLKRKFSDRLRSEIGRLDVKDIVTDSRGRLTLEVRDALNSGSAGTEDEVTTPAADNAIAEAAERVTAETKGKVPVINPNSMAALGIEVVDVRIKQINLPTEVSEAIYNRMRAEREAVARRHRSQGQEEAEKLRATADYEVTRTLAEAERQGRIMRGEGDAEAAKLFADAFSKDPDFYAFIRSLRAYENSFSGNQDVMVMSPDSDFFRYMKTPTSATR [P0ABC3] | 6.51 ± 1.1 | 6.07 ± 0.18 | 6.357 ± 0.024 | 6.347 ± 0.034 | 5.72 ± 0.33 | 3.09 ± 0.1 | 6.06 ± 0.14 | 11.7 ± 0.84 | 6.653 ± 0.049 | 12.7 ± 0.77 | 6 ± 0.65 | 13.8 ± 0.97
4 | MRLCDRDIEAWLDEGRLSINPRPPVERINGATVDVRLGNKFRTFRGHTAAFIDLSGPKDEVSAALDRVMSDEIVLDEGEAFYLHPGELALAVTLESVTLPADLVGWLDGRSSLARLGLMVHVTAHRIDPGWSGCIVLEFYNSGKLPLALRPGMLIGALSFEPLSGPAVRPYNRREDAKYRNQQGAVASRIDKD | 3.92 ± 0.54 | 3.36 ± 0.25 | 3.062 ± 0.021 | 4.56 ± 1.7 | 3.14 ± 0.53 | 2.852 ± 0.011 | 4.81 ± 0.3 | 7.69 ± 0.16 | 3.17 ± 0.19 | 4.96 ± 0.52 | 5.25 ± 0.11 | 10.4 ± 0.19
5 | MRLDKFIAQQLGVSRAIAGREIRGNRVTVDGEIVRNAAFKLLPEHDVAYDGNPLAQQHGPRYFMLNKPQGYVCSTDDPDHPTVLYFLDEPVAWKLHAAGRLDIDTTGLVLMTDDGQWSHRITSPRHHCEKTYLVTLESPVADDTAEQFAKGVQLHNEKDLTKPAVLEVITPTQVRLTISEGRYHQVKRMFAAVGNHVVELHRERIGGITLDADLAPGEYRPLTEEEIASVV [P0AA43] | 5.25 ± 0.067 | 4.76 ± 0.54 | 3.68 ± 0.064 | 4.65 ± 0.39 | 3.78 ± 0.066 | 3 ± 0.1 | 4.74 ± 0.18 | 8.66 ± 0.55 | 3.57 ± 0.14 | 6.08 ± 0.51 | 4 ± 0.33 | 7.21 ± 0.22
6 | MRLFAQLSWYFRREWRRYLGAVALLVIIAMLQLVPPKVVGIVVDGVTEQHFTTGQILMWIATMVLIAVVVYLLRYVWRVLLFGASYQLAVELREDYYRQLSRQHPEFYLRHRTGDLMARATNDVDRVVFAAGEGVLTLVDSLVMGCAVLIMMSTQISWQLTLFSLLPMPVMAIMIKRNGDALHERFKLAQAAFSSLNDRTQESLTSIRMIKAFGLEDRQSALFAADAEDTGKKNMRVARIDARFDPTIYIAIGMANLLAIGGGSWMVVQGSLTLGQLTSFMMYLGLMIWPMLALAWMFNIVERGSAAYSRIRAMLAEAPVVNDGSEPVPEGRGELDVNIHQFTYPQTDHPALENVNFALKPGQMLGICGPTGSGKSTLLSLIQRHFDVSEGDIRFHDIPLTKLQLDSWRSRLAVVSQTPFLFSDTVANNIALGCPNATQQEIEHVARLASVHDDILRLPQGYDTEVGERGVMLSGGQKQRISIARALLVNAEILILDDALSAVDGRTEHQILHNLRQWGQGRTVIISAHRLSALTEASEIIVMQHGHIAQRGNHDVLAQQSGWYRDMYRYQQLEAALDDAPENREEAVDA | 6.33 ± 0.2 | 6.624 ± 0.017 | 5.58 ± 1.5 | 4.42 ± 0.37 | 4.26 ± 0.096 | – | 4.99 ± 0.061 | 11.1 ± 1.6 | 4.77 ± 0.67 | 7.121 ± 0.033 | 6.08 ± 0.52 | 11.6 ± 3.3
